Results reported in patent US20140220596A1 (MEDICINAL BIOCONVERGENCE RESEARCH CENTER, published 2014).

Target: T1, Fc-fused soluble cadherin-6 (extracellular domain of CDH6 fused to the Fc fragment of human IgG1) (human, UniProt P55285 54-615)
T1 construct: also called Fc-CDH6; Fc-fused CDH6; not shown: Fc fragment of human IgG1
T1 sequence: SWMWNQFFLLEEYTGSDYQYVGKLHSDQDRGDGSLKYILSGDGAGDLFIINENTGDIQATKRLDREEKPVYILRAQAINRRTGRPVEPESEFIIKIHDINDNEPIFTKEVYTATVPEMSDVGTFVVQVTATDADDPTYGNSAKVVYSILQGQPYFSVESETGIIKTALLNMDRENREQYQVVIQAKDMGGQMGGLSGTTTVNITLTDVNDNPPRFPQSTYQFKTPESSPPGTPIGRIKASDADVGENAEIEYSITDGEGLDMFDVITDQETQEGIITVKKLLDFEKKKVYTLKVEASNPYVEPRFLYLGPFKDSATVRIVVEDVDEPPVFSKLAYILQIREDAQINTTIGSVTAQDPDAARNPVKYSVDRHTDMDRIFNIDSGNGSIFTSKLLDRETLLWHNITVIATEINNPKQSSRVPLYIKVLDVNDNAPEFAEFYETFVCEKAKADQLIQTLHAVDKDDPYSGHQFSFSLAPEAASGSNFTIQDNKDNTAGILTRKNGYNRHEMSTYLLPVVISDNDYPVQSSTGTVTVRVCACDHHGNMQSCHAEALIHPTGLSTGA
Test: GST pull-down with GSH-sepharose, immunoblot for CDH6
Method: (A) A panel of Fc-fused soluble cadherin family proteins was bound to His-tagged GRS or to BSA-coated plates, and complexes were detected with the IgG1 Fc-HRP (Thermo) reagent. (B) To confirm the binding between cadherins and GRS, Fc-CDH2, 6 and 18 were incubated with His-GRS. Fc-CDHs were precipitated with protein A/G agarose and co-precipitated GRS was determined by immunoblotting. (C) To calculate the equilibrium dissociation constant (IQ), immobilized Fc-fused (to gold chips) cadherins were incubated with GRS (31.25 nM˜1 uM). Binding of GRS to CDH6 was determined by surface plasmon resonance and expressed as resonance units (RU). (D) To confirm the binding between CDH6 and GRS domain peptides, Fc-CDH6 was incubated with different domains (F1, 2, 3 and 4) of GRS that were expressed as the GST fusion proteins. GST-GRS proteins were precipitated with GSH-sepharose beads and co-precipitated CDH6 was determined by immunoblotting. (E) Five difference cancers cells were determined for the expression of CDH6 by immunoblotting. (F) HCT116 cells were transfected with non-specific siRNA controls (si-con) or two differently designed siRNAs targeting CDH6 (#1 and #2), treated with biotinylated GRS (15 nM), and the binding of GRS was analyzed by immunoblotting. (G) HCT116 cells were transfected with si-con and si-CDH6 as described above, and cell binding of GRS was measured by FACS analysis. […]

binding result: binds
B1: GST-fused GRS fragment F4 (C-terminal anticodon-binding domain, 175 amino acids) (other, not shown: a dimerising Fc or GST; small tags and cut ends)
chain: LYVEEVVPNVIEPSFGLGRIMYTVFEHTFHVREGDEQRTFFSFPAVVAPFKCSVLPLSQNQEFMPFVKELSEALTRHGVSHKVDDSSGSIGRRYARTDEIGVAFGVTIDFDTVNKTPHTATLRDRDSMRQIRAEISELPSIVQDLANGNITWADVEARYPLFEGQETGKKETIEE
notes: also called ABD; GST-GRS F4
